To fix the notation:
B1: Azoarcus group I ribozyme (parent)
chain: GUGCCUUGCGCCGGGAAACCACGCAAGGGAUGGUGUCAAAUUCGGCGAAACCUAAGCGCCCGCCCGGGCGUAUGGCAACGCCGAGCCAAGCUUCGGCGCCUGCGCCGAUGAAGGUGUAGAGACUAGACGGCACCCACCUAAGGCAAACGCUAUGGUGAAGGCAUAGUCCAGGGAGUGGCGAAAGUCACACAAACCGG

The data set covers variants of B1. In words: reverse-splicing fitness (ratio to wild type); higher = more active; in vitro selection; Mg2+ level not given. Summed up:
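An in vitro group I ribozyme library with randomized positions was T7-transcribed and gel-purified. In triplicate, 10 pmol RNA in EPPS pH 7.5 was reacted with 50 pmoles of a 30-nt RNA substrate for 1 h at 37 °C across several added MgCl2 levels (1–48 mM), then stopped with EDTA. Products were reverse transcribed from a substrate-complementary primer, PCR-amplified and sequenced (HiSeq 4000). Fitness is a variant's read proportion after selection over that before, normalised to wild type.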
For C82A A111U C150A U176C, the reverse-splicing fitness was determined as 0.0292.

Turning to C82A A120C A145C C150A C169A U176C, the reverse-splicing fitness worked out at 0.0102. In the case of C82A A120C A145C C150A C169A U176G, the reverse-splicing fitness was 0.00574. As to C82A A120C A145C C150A C169A U176A, the reverse-splicing fitness worked out at 0.0195. For the variant C82A A120C A145C C150A C169U, the reverse-splicing fitness worked out at 0.00877. In the case of C82A A120C A145C C150A C169A, the reverse-splicing fitness was 0.00995. For C82A A120C A145C C150A C169G the value was 0.0078; for C82A A120C C150A C169U U176G, 0.00644; for C82A A120C C150A C169U U176A, 0.0176. Consider C82A A120C C150A C169U U176C, for which the reverse-splicing fitness turned out to be 0.0137.

In the case of C82A A120C A145G C150U C169A, the reverse-splicing fitness worked out at 0.0108. Under C82A A120C A145G C150U C169G stands 0.00896; under C82A A120C A145G C150U C169U, 0.019; under C82A A111U C169A U176C, 0.0202. Under C82A A111U C169A U176G stands 0.00595. Regarding C82A A111U C169A U176A, the reverse-splicing fitness is 0.0172. Consider C82A A120C A145U C150G C169G U176C, for which the reverse-splicing fitness was 0.00545. For C82A A120C A145U C150G C169G U176A the value was 0.00819; for C82A A120C A145U C150G C169G U176G, 0.00467. With C82A A111U C150G C169A U176C, the reverse-splicing fitness stood at 0.0105. As to C82A A111U C150G C169A U176A, the reverse-splicing fitness was 0.0116. C82A A111U C150G C169A U176G: the reverse-splicing fitness was found to be 0.00757. For C82A A120C A145C C169A U176C the value was 0.00953; for C82A A120C A145C C169A U176G, 0.00403; for C82A A120C A145C C169A U176A, 0.015. For C82A A120C A145U C150U U176C, the reverse-splicing fitness was 0.0422. For C82A A120C A145U C150U U176G the value was 0.00864; for C82A A120C A145U C150U U176A, 0.0269; for C82A A120C C150A U176A, 0.0151. Take C82A A120C C150A U176C: the reverse-splicing fitness was 0.0248. Under C82A A120C C150A U176G stands 0.00826; under C82A A120C A145G U176G, 0.00861; under C82A A120C A145G U176A, 0.0426. For the variant C82A A120C A145G U176C, the reverse-splicing fitness turned out to be 0.0683.

As to C82A A120C A145U C150G U176C, the reverse-splicing fitness is 0.0141. For C82A A120C A145U C150G U176A, the reverse-splicing fitness is 0.00792. C82A A120C A145U C150G U176G: the reverse-splicing fitness is 0.00376. On to C82A A120C A145G C150A U176G, for which the reverse-splicing fitness is 0.00982.

C82A A120C A145G C150A U176A: the reverse-splicing fitness was 0.0137.

With C82A A120C A145G C150A U176C, the reverse-splicing fitness was 0.03. In the case of C82A A120C A145G C169G, the reverse-splicing fitness came out at 0.0102. Take C82A A120C A145G C169A: the reverse-splicing fitness worked out at 0.00985.

Consider C82A A120C A145G C169U, for which the reverse-splicing fitness came out at 0.0214. For C82A A120C C150G C169A the value was 0.0112.

As to C82A A120C C150G C169G, the reverse-splicing fitness is 0.00866. With C82A A120C C150G C169U, the reverse-splicing fitness was determined as 0.0104. For C82A A120C A145U C169G, the reverse-splicing fitness amounted to 0.00932. Under C82A A120C A145U C169A stands 0.00925; under C82A A120C A145U C169U, 0.0199; under C82A A120C A145U C150U C169G U176A, 0.0129. For the variant C82A A120C A145U C150U C169G U176G, the reverse-splicing fitness was found to be 0.00507. For C82A A120C A145U C150U C169G U176C the value was 0.0198; for C82A A120C A145G C150G C169G U176A, 0.013; for C82A A120C A145G C150G C169G U176G, 0.00719. For the variant C82A A120C A145G C150G C169G U176C, the reverse-splicing fitness was found to be 0.0127. As to C82A A120C A145C C150A U176G, the reverse-splicing fitness is 0.00599. For C82A A120C A145C C150A U176C the value was 0.0155; for C82A A120C A145C C150A U176A, 0.0107. Regarding C82A A120C A145C C150U C169U, the reverse-splicing fitness came to 0.0118. Regarding C82A A120C A145C C150U C169A, the reverse-splicing fitness stood at 0.00982. As for C82A A120C A145C C150U C169G, the reverse-splicing fitness was 0.00856.

Consider C82A A120C C169U U176C, for which the reverse-splicing fitness stood at 0.0151. For the variant C82A A120C C169U U176A, the reverse-splicing fitness was determined as 0.0172. With C82A A120C C169U U176G, the reverse-splicing fitness was determined as 0.00416. Under C82A A111U C150A C169G U176C stands 0.0266; under C82A A111U C150A C169G U176G, 0.00794; under C82A A111U C150A C169G U176A, 0.0202. As to C82A A120C A145G C169G U176A, the reverse-splicing fitness was determined as 0.0237. For C82A A120C A145G C169G U176C the value was 0.0316; for C82A A120C A145G C169G U176G, 0.0041.

In the case of C82A A120C A145G C150G C169G, the reverse-splicing fitness is 0.00868. Turning to C82A A120C A145G C150G C169U, the reverse-splicing fitness came to 0.0111. C82A A120C A145G C150G C169A: the reverse-splicing fitness came out at 0.01.

For the variant C82A A120C A145C C150G C169A U176A, the reverse-splicing fitness amounted to 0.0105. For C82A A120C A145C C150G C169A U176C, the reverse-splicing fitness came to 0.00816. C82A A120C A145C C150G C169A U176G: the reverse-splicing fitness came out at 0.00632.

Consider C82A A120C A145U C150A C169G U176A, for which the reverse-splicing fitness was determined as 0.0165. For C82A A120C A145U C150A C169G U176C the value was 0.0221; for C82A A120C A145U C150A C169G U176G, 0.00546. In the case of C82A A120C A145G C150U C169U U176C, the reverse-splicing fitness worked out at 0.0136. Under C82A A120C A145G C150U C169U U176G stands 0.00621; under C82A A120C A145G C150U C169U U176A, 0.0157; under C82A A120C A145G C150U U176G, 0.0102.

In the case of C82A A120C A145G C150U U176A, the reverse-splicing fitness is 0.0309.

Source of the values: the RNAGym collection of RNA variant scans (doi:10.1093/molbev/msab373).
